{"source": "patent US20230272390A1", "about": "“COMPOSITIONS AND METHODS FOR HEMOGLOBIN PRODUCTION” (THE CHILDREN'S HOSPITAL OF PHILADELPHIA, priority 2020, published 2023)", "molecules": {"B1": {"name": "ZNF410 consensus oligo 17 bp (dsDNA)", "DNA 1": "CACATCCCATAATAATG", "DNA 2": "CATTATTATGGGATGTG"}, "B2": {"name": "negative control oligo (dsDNA)", "DNA 1": "TCCACTGCCAGGACCTTT", "DNA 2": "AAAAGGTCCTGGCAGTGG"}, "B3": {"name": "ZNF410 FL: full-length tagged human ZNF410 (478 amino acids) overexpressed as control (protein)", "chain": "MLSDELESKPELLVQFVQNTSIPLGQGLVESEAKDITCLSLLPVTEASECSRLMLPDDTTNHSNSSKEVPSSAVLRSLRVNVGPDGEETRAQTVQKSPEFLSTSESSSLLQDLQPSDSTSFILLNLTRAGLGSSAEHLVFVQDEAEDSGNDFLSSESTDSSIPWFLRVQELAHDSLIAATRAQLAKNAKTSSNGENVHLGSGDGQSKDSGPLPQVEKKLKCTVEGCDRTFVWPAHFKYHLKTHRNDRSFICPAEGCGKSFYVLQRLKVHMRTHNGEKPFMCHESGCGKQFTTAGNLKNHRRIHTGEKPFLCEAQGCGRSFAEYSSLRKHLVVHSGEKPHQCQVCGKTFSQSGSRNVHMRKHHLQLGAAGSQEQEQTAEPLMGSSLLEEASVPSKNLVSMNSQPSLGGESLNLPNTNSILGVDDEVLAEGSPRSLSSVPDVTHHLVTMQSGRQSYEVSVLTAVNPQELLNQGDLTERRT", "modifications": "left off: small tags and cut ends", "notes": "full-length tagged human ZNF410 (478 amino acids) overexpressed as control"}}, "key": {"[1]": {"molecular_target": "T1, ZNF410 ZF1-5 (GST removed) (Homo sapiens, UniProt Q86VK4 SEQ:217-366)", "T1 sequence": "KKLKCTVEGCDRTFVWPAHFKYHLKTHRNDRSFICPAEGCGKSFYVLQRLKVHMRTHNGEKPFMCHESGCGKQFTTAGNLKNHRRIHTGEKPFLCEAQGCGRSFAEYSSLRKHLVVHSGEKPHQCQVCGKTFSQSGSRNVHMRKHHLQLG", "assay": "structure; crystal structure 2.75 A, PDB 6WMI", "conditions": "tags: none (GST cleaved with PreScission protease); label: FAM 5' (top strand) in FP"}, "[2]": {"molecular_target": "T2, ZNF410 ZF1-5 (GST fusion) (Homo sapiens, UniProt Q86VK4 SEQ:217-366)", "T2 sequence": "T1 sequence", "assay": "FP; no measurable binding up to 2.5 uM; shares 7/17 bp with consensus", "conditions": "tags: GST N-terminal (pGEX-6P-1, pXC2180); label: FAM 5' (top strand)", "description": "To further gain insight into the molecular basis of how the ZNF410 tandem ZF domain recognizes its targeting DNA sequence, crystallization of the ZNF410-DNA complex was performed. The binding affinity of the ZNF410 ZF domain (ZF1-5) with the consensus motif was quantified by fluorescence polarization using purified GST fusion protein (Patel, et al. (2016) Methods Enzymol., 573:387-401). […] Next, the crystal structure of the ZF domain in complex with the same 17-bp oligo (5′-3′: […] (SEQ ID NO: 19); 3′-5′: […] (SEQ ID NO: 20)) containing the consensus motif was determined. The structure of the protein-DNA complex was solved by the single-wavelength anomalous diffraction (SAD) method (Hendrickson, et al. (1990) EMBO J., 9:1665-1672) at 2.75 Å resolution. As in conventional C2H2 ZF proteins (Wolfe, et al. (2000) Annu. Rev. Biophys. Biomol. Struct., 29:183-212), each of five fingers of ZNF410 comprises two strands and a helix, with two histidine residues in the helix together with one cysteine in each strand coordinating a zinc ion, forming a characteristic tetrahedral C2-Zn—H2 structural unit that confers rigidity to the fingers. When bound to DNA, ZF1-5 occupies the DNA major groove, with their α-helices toward DNA and the strands and the C2-Zn—H2 units facing outside (FIGS. 6B and C). […]"}, "[3]": {"test_system": "motifs from the CHD4 promoter and enhancer sites", "assay": "EMSA with COS-7 nuclear extracts and radiolabeled probes", "assay_type": "binding, human", "conditions": "COS nuclear extracts, FLAG-tagged constructs, radiolabeled CHD4 motif probes", "description": "Nuclear extracts were prepared from COS-7 cells transiently transfected with ZNF410 full-length and ZNF410 ZF1-5 plasmids. FuGENE® 6 (Promega) was used to transfect 5 μg of vector into 100 mm plates of COS-7 cells. A pcDNA3 empty vector was used as control. Cells were harvested 48 hours after transfection and nuclear extracts prepared (Andrews, et al. (1991) Nucleic Acids Res., 19:2499).\nEMSAs were performed (Crossley, et al. (1996) Mol. Cell Biol., 16:1695-1705). The sense oligonucleotide was labelled with [γ-^32P]-adenosine triphosphate (Perkin Elmer) and boiled at 100° C. for 1 minute before addition of the antisense oligonucleotide and annealing of probe via slow cooling from 100° C. to room temperature. Probes were purified using Quick Spin Columns for radio-labelled DNA Purification (Roche). Nuclear extracts were harvested from COS-7 cells and samples and loaded on a 6% native polyacrylamide gel in TBE buffer (45 mM Tris, 45 mM boric acid, 1 mM EDTA). A ‘COS empty’ control lane was included to show binding of any background endogenous protein to the probe. […] Gels were run at 250 V for 1 hour, 45 minutes at 4° C. then dried under vacuum. […]\nZNF410 contains five tandem C2H2-type zinc fingers (ZFs) potentially involved in DNA binding (FIG. 5A). […] Direct DNA binding by full length (FL) ZNF410 to sequences found at the CHD4 gene was assessed by electrophoretic mobility shift assays (EMSAs). […]"}, "[4]": {"molecular_target": "T3, endogenous ZNF410 (Homo sapiens, UniProt Q86VK4)", "T3 construct": "endogenous in cells; host or cells: HUDEP-2 (HUDEP-2-Cas9) cells, differentiated", "T3 sequence (Q86VK4 1-478)": "B3 chain", "assay": "RT-qPCR in HUDEP-2 cells overexpressing HA-tagged ZNF410 constructs", "assay_type": "cell-based", "description": "HUDEP-2 cells were cultured and differentiated as described (Kurita, et al. (2013) PLoS One 8:e59890). Briefly, StemSpan™ Serum-Free Expansion Medium (SFEM) supplemented with 50 ng/ml human stem cell factor (SCF), 10 μM dexamethasone, 1 μg/ml doxycycline, 3 IU/ml erythropoietin and 1% penicillin/streptomycin was utilized for routine cell maintenance. Cell density was kept at 0.1-1×10^6/ml. HUDEP-2 cells were differentiated for 6-7 days in IMDM supplemented with 50 ng/ml human SCF, 3 IU/ml erythropoietin, 2.5% fetal bovine serum, 250 μg/ml holo-transferrin, 10 ng/ml heparin, 10 μg/ml insulin, 1 μg/ml doxycycline and 1% penicillin/streptomycin.\nSgRNAs were cloned into a lentiviral U6-sgRNA-EFS-GFP/mCherry expression vector (LRG, Addgene: #65656) by BsmBI digestion. The ZNF410 cDNA (clone ID: OHu10535), CHD4 cDNA (clone ID: OHu28780) were purchased from GenScript and were sub-cloned into a lentiviral vector pSDM101-IRES-GFP. ZNF410 variants were sub-cloned into pSDM101-IRES-GFP vector. The N-terminal HA tag was introduced by PCR. For EMSA, the ZNF410 full length or different ZF versions were sub-cloned into mammalian expression vector pcDNA3.\nLentivirus was produced as described (Grevet, et al. (2018) Science 361:285-290). Briefly, 10-20 μg of expression vectors, 5-10 μg of pVSVG (pMD2.G) and 7.5-15 μg of psPAX2 package plasmids, and 80 μl of 1 mg/ml polyethylenimine (PEI) were mixed, incubated for 15-20 minutes, and added to HEK293T cells grown in 10 cm plates to above 90% confluence. Media were replaced 6-8 hours post transfection, virus was collected 24 hours and 48 hours post-transfection and pooled. For infection, virus-containing supernatant was mixed with the indicated cell lines with 8 μg/ml polybrene and 10 mM HEPES, and then spun at 2250 rpm for 1.5 hours at room temperature. Infected HUDEP-2 cells were selected for mCherry+ or GFP+ cell sorting at 48 hours post-infection.\nTotal RNA was purified using the RNeasy® Plus Mini Kit (Qiagen), including an on-column DNAse treatment using RNase-free DNase set (Qiagen) to remove genomic DNA. Reverse transcription was accomplished using iScript™ Supermix (Bio-Rad). qPCR reactions were prepared with Power SYBR® Green (ThermoFisher Scientific). Quantification was performed using the ΔΔCT method.\nOverexpression of ZF1-5 but not ZF2-4 should compete with endogenous ZNF410 for chromatin binding, thus acting in a dominant-negative manner. To test this hypothesis, a construct containing HA-tagged ZF1-5 or ZF2-4 driven by the EF1α promoter was introduced via lentiviral infection into HUDEP-2 cells. As control, the expression of full-length HA-tagged ZNF410 was forced. […] Moreover, full-length HA-ZNF410 when overexpressed to similar levels to HA-ZF1-5 also produced similar binding patterns (FIG. 4A). […] Thus, the ZF region is sufficient for chromatin occupancy but insufficient for CHD4 gene activation. […] Finally, the impact of ZNF410 expression on γ-globin levels was also measured."}}, "data": [{"molecule": "B1", "values": [{"measurement": "binding result", "setting": "[1]", "value": "binds"}]}, {"molecule": "B2", "values": [{"measurement": "binding result", "setting": "[2]", "value": "no binding"}]}, {"molecule": "B3", "values": [{"measurement": "DNA binding in EMSA", "setting": "[3]", "value": "comparable binding to each of the four DNA probes"}, {"measurement": "effect on CHD4 expression", "setting": "[4]; overexpression in HUDEP-2 cells", "value": "increased"}, {"measurement": "effect on γ-globin mRNA levels", "setting": "[4]; overexpression in differentiated HUDEP-2 cells", "value": "slight decrease"}]}]}
